Source: patent US6943279B1, “Amino polyol amine oxidase polynucleotides and related polypeptides and methods of use” (priority 1999, dated 2005)
Where two headings read alike, the source gives them in different places.

Columns and labels:
APAO = APAO activity of crude cell-free extract, TLC; type: biochemical, Exophiala spinifera; settings: for modification by the crude extract: crude cell-free extract of induced Exophiala spinifera, TLC
Experimental: For analysis of APAO activity, an alternative method was used. Equal volumes of sample and ^14C-AP1 (1 mg/ml, pH 8, 50 mM sodium phosphate) were incubated at room temperature for one to six days. Analytical thin-layer chromatography was then carried out on C60 HPK silica gel plates (Whatman #4807-700; 10×10 cm; 0.2 mm thick). After application of from 0.1 to 2 μl of aqueous sample, the plates were air-dried and developed in CHCl3:MeOH:CH3COOH:H20 (55:36:8:1). Plates were then air dried, and exposed to Phosphorlmager screen (Molecular Dynamics) or autoradiographic film. A Storm™ Phosphorlmager (Molecular Dynamics) was used to scan the image produced on the screen.
A cell-free extract that contains the deaminase activity was obtained by subjecting substrate-induced Exophiala spinifera cells to disruption using a Bead Beater™ in 50 mM Na-phosphate, pH 8.0, and recovering the cell-free supernatant by centrifugation and 0.45 micron filtration. Catabolic activity is assayed by incubating extracts with AP1 (hydrolyzed fumonisin BI backbone) or “^4C-labelled AP1 with the extract and evaluating by TLC on C18 or C60 silica. […] Other amine-containing substrates were tested for modification by the crude extract. […] Preparative amounts of the product, named 2-OP, have also been purified and analyzed by C13 nmr.

APAO enzyme = type: biochemical, Exophiala spinifera
Experimental: The following assay was used to determine the substrate specificity of the APAO enzyme. […] The APAO enzyme was recombinant enzyme produced,as GST fusion in E. coli, purified over a glutathione affinity column and cleaved with thrombin to remove the GST. All components were mixed at room temperature. The initial rate was determined in a spectrophotometer at 572 nm over one minute by absorbance units/second (BLANK). Ten microliters of APAO at 70 ug/ml was added and mixed. The initial rate was again determined at 572 nm over one minute in absorbance units/second (SAMPLE). The rates were converted to absorbance units/minute. The BLANK value was subtracted from the SAMPLE value. The absorbance units were converted to μM H2O2 wherein 1 μM H2O2 equals 0.138 absorbance units at pH 8.0.

[1] = Mutated APAO lysates from E coli, Amplex Red assay, substrate FB1; type: biochemical
[2] = Mutated APAO lysates from E coli, Amplex Red assay, substrate AP1; type: biochemical
Experimental: The following assay was used to determine the substrate specificity of the APAO enzyme. Reaction mix: 436 μl of 200 mM Na-phosphate, pH8.0; 50 μl substrate (10 mM); 2 μl Amplex Red (1 mg in 200 μl DMSO); and 2 μof Peroxidase (5000 U/ml). The APAO enzyme was recombinant enzyme produced,as GST fusion in E. coli, purified over a glutathione affinity column and cleaved with thrombin to remove the GST. All components were mixed at room temperature. The initial rate was determined in a spectrophotometer at 572 nm over one minute by absorbance units/second (BLANK). Ten microliters of APAO at 70 ug/ml was added and mixed. The initial rate was again determined at 572 nm over one minute in absorbance units/second (SAMPLE). The rates were converted to absorbance units/minute. The BLANK value was subtracted from the SAMPLE value. The absorbance units were converted to μM H2O2 wherein 1 μM H2O2 equals 0.138 absorbance units at pH 8.0.
The APAO molecules mutated at specific cysteines were tested in a bacterial expression system using the previously described Amplex Red assay. The results can be seen in the table below entitled “Cys(−) APAO lysates from E. coli.” The mutated APAO molecules can then be tested in maize, linked to a signal peptide, as previously described. Either one of the cysteines or two or three together could be mutated to serines without any measured loss in APAO enzyme activity of the E coli-expressed enzyme. […] The mutated versions of APAO operably linked to a signal sequence, which retain function when expressed as recombinant fusion proteins in E. coli may also provide additional stability or foldability when expressed in plants or other secretion expression systems.

[3] = as above; type: biochemical; settings: Glyc(−) APAO lysates from E coli
[4] = 1 mM substrate, pH 8.0, room temperature
[5] = 0.5 mg/mL substrate, pH 8.0, room temperature
[6] = Cys(−) APAO lysates from E coli
[7] = Triple Cys(−) APAO lysates from E coli
[8] = Glyc(−) APAO lysates from E coli

## CCCCCCCCCCCCCC[C@@H](O)[C@@H](O)[C@@H](N)CO [phytosphingosine]
APAO
  modification by the crude extract: apparently not modified

## CCCC[C@@H](C)[C@@H](OC(=O)C[C@@H](CC(=O)O)C(=O)O)[C@H](C[C@@H](C)C[C@H](O)CCCCCC[C@H](O)[C@H](C)N)OC(=O)C[C@@H](CC(=O)O)C(=O)O [Fumonisin B3]
APAO enzyme; [4]
  RATE: 0.1449 μM H2O2/min

## CNC[C@H](O)c1ccc(O)c(O)c1 [epinephrine]
APAO enzyme; pH 8
  RATE: 0.0071 μM H2O2/min

## NCCCNCCCCNCCCN [spermine]
APAO enzyme; pH 8
  RATE: 0.0002 μM H2O2/min

## CCCC[C@@H](C)[C@@H](OC(=O)C[C@@H](CC(=O)O)C(=O)O)[C@H](C[C@@H](C)CCCCCC[C@@H](O)C[C@H](O)[C@H](C)N)OC(=O)C[C@@H](CC(=O)O)C(=O)O [Fumonisin B2]
APAO enzyme; [5]
  RATE: 0.3058 μM H2O2/min

## CCCCCCCCCCCCCCC[C@@H](O)[C@@H](N)CO [sphinganine]
APAO
  modification by the crude extract: apparently not modified

## CCCC[C@@H](C)[C@@H](OC(=O)C[C@@H](CC(=O)O)C(=O)O)[C@H](C[C@@H](C)CCCCCCCC[C@H](O)[C@H](C)N)OC(=O)C[C@@H](CC(=O)O)C(=O)O [Fumonisin B4]
APAO enzyme; [5]
  RATE: 0.1728 μM H2O2/min

## NC[C@H](O)c1ccc(O)c(O)c1 [norepinephrine]
APAO enzyme; [4]
  RATE: 0.0087 μM H2O2/min

## NCCc1ccc(O)c(O)c1 [dopamine]
APAO enzyme; pH 8
  RATE: 0.0040 μM H2O2/min

## CCCCCCCCCCCCC/C=C/[C@@H](O)[C@@H](N)CO [sphingosine]
APAO
  modification by the crude extract: apparently not modified

B1: C359S, C461S: APAO mutated at both cysteines 359 and 461 (SEQ ID NO: 51), plasmid PHP16738 (protein)
chain: KDNVADVVVVGAGLSGLETARKVQAAGLSCLVLEAMDRVGGKTLSVQSGPGRTTINDLGAAWINDSNQSEVSRLFERFHLEGELQRTTGNSIHQAQDGTTTTAPYGDSLLSEEVASALAELLPVWSQLIEEHSLQDLKASPQAKRLDSVSFAHYCEKELNLPAVLGVANQITRALLGVEAHEISMLFLTDYIKSATGLSNIFSDKKDGGQYMRCKTGMQSISHAMSKELVPGSVHLNTPVAEIEQSASGCTVRSASGAVFRSKKVVVSLPTTLYPTLTFSPPLPAEKQALAENSILGYYSKIVFVWDKPWWREQGFSGVLQSSSDPISFARDTSIDVDRQWSITCFMVGDPGRKWSQQSKQVRQKSVWDQLRAAYENAGAQVPEPANVLEIEWSKQQYFQGAPSAVYGLNDLITLGSALRTPFKSVHFVGTETSLVWKGYMEGAIRSGQRGAAEVVASLVPAA
modifications: Cys (-) APAO; removal of cys 359 and 461 (Exophiala spinifera)
[1]; [6]
  Conclusion: Slightly active
  M H2O2/min: 0.16 μM H2O2/min
[2]; [6]
  Conclusion: Fully/More Active
  M H2O2/min: 3.90 μM H2O2/min
[2]; Cys(−) APAO lysates from E coli, listed as C359S+C461S
  Conclusion: more APAO activity in crude lysates than wild type enzyme

B2: C167S, C359S, C461S: triply Cys-mutated version of APAO (SEQ ID NO: 53), plasmid PHP17089 (protein)
chain: KDNVADVVVVGAGLSGLETARKVQAAGLSSLVLEAMDRVGGKTLSVQSGPGRTTINDLGAAWINDSNQSEVSRLFERFHLEGELQRTTGNSIHQAQDGTTTTAPYGDSLLSEEVASALAELLPVWSQLIEEHSLQDLKASPQAKRLDSVSFAHYCEKELNLPAVLGVANQITRALLGVEAHEISMLFLTDYIKSATGLSNIFSDKKDGGQYMRCKTGMQSISHAMSKELVPGSVHLNTPVAEIEQSASGCTVRSASGAVFRSKKVVVSLPTTLYPTLTFSPPLPAEKQALAENSILGYYSKIVFVWDKPWWREQGFSGVLQSSSDPISFARDTSIDVDRQWSITCFMVGDPGRKWSQQSKQVRQKSVWDQLRAAYENAGAQVPEPANVLEIEWSKQQYFQGAPSAVYGLNDLITLGSALRTPFKSVHFVGTETSLVWKGYMEGAIRSGQRGAAEVVASLVPAA
modifications: Cys (-) APAO; removal of cys 169, 359, and 461 (Exophiala spinifera)
[1]; [6]
  Conclusion: Slightly active
  M H2O2/min: 0.25 μM H2O2/min
[1]; [7]
  Conclusion: Slightly active
  M H2O2/min: 0.26 μM H2O2/min
[2]; [6]
  Conclusion: Slightly active
  M H2O2/min: 0.27 μM H2O2/min
[2]; [7]
  Conclusion: Slightly Active
  M H2O2/min: 0.27 μM H2O2/min

B3: C461S: APAO mutated at cysteine 461 (SEQ ID NO: 49), plasmid PHP16737 (protein)
chain: KDNVADVVVVGAGLSGLETARKVQAAGLSCLVLEAMDRVGGKTLSVQSGPGRTTINDLGAAWINDSNQSEVSRLFERFHLEGELQRTTGNSIHQAQDGTTTTAPYGDSLLSEEVASALAELLPVWSQLIEEHSLQDLKASPQAKRLDSVSFAHYCEKELNLPAVLGVANQITRALLGVEAHEISMLFLTDYIKSATGLSNIFSDKKDGGQYMRCKTGMQSICHAMSKELVPGSVHLNTPVAEIEQSASGCTVRSASGAVFRSKKVVVSLPTTLYPTLTFSPPLPAEKQALAENSILGYYSKIVFVWDKPWWREQGFSGVLQSSSDPISFARDTSIDVDRQWSITCFMVGDPGRKWSQQSKQVRQKSVWDQLRAAYENAGAQVPEPANVLEIEWSKQQYFQGAPSAVYGLNDLITLGSALRTPFKSVHFVGTETSLVWKGYMEGAIRSGQRGAAEVVASLVPAA
modifications: Cys (-) APAO; removal of cysteine 461 (Exophiala spinifera)
[1]; [6]
  Conclusion: Slightly active
  M H2O2/min: 0.14 μM H2O2/min
[2]; [6]
  Conclusion: Fully Active
  M H2O2/min: 2.25 μM H2O2/min

B4: APAO: amino polyol amine oxidase from Exophiala spinifera, ATCC 74269 (SEQ ID NO: 23) (protein, listed as Exophiala spinifera)
chain: MALAPSYINPPNVASPAGYSHVGVGPDGGRYVTIAGQIGQDASGVTDPAYEKQVAQAFANLRACLAAVGATSNDVTKLNYYIVDYAPSKLTAIGDGLKATFALDRLPPCTLVPVSALSSPEYLFEVDATALVPGHTTPDNVADVVVVGAGLSGLETARKVQAAGLSCLVLEAMDRVGGKTLSVQSGPGRTTINDLGAAWINDSNQSEVSRLFERFHLEGELQRTTGNSIHQAQDGTTTTAPYGDSLLSEEVASALAELLPVWSQLIEEHSLQDLKASPQAKRLDSVSFAHYCEKELNLPAVLGVANQITRALLGVEAHEISMLFLTDYIKSATGLSNIFSDKKDGGQYMRCKTGMQSICHAMSKELVPGSVHLNTPVAEIEQSASGCTVRSASGAVFRSKKVVVSLPTTLYPTLTFSPPLPAEKQALAENSILGYYSKIVFVWDKPWWREQGFSGVLQSSCDPISFARDTSIDVDRQWSITCFMVGDPGRKWSQQSKQVRQKSVWDQLRAAYENAGAQVPEPANVLEIEWSKQQYFQGAPSAVYGLNDLITLGSALRTPFKSVHFVGTETSLVWKGYMEGAIRSGQRGAAEVVASLVPAA
APAO enzyme; recombinant APAO enzyme expressed in E. coli
  activity on intact FB1 and other B-series fumonisins: significant but reduced activity
[1]; [6]
  Conclusion: Slightly active (wt)
  M H2O2/min: 0.11 μM H2O2/min
[1]; [8]
  Conclusion: Slightly active (wt)
  M H2O2/min: 0.12 μM H2O2/min
[1]; [7]
  Conclusion: Slightly active (wt)
  M H2O2/min: 0.27 μM H2O2/min
[2]; [6]
  Conclusion: Active (wild type)
  M H2O2/min: 2.14 μM H2O2/min
[2]; [7]
  Conclusion: Active (wild type)
  M H2O2/min: 1.16 μM H2O2/min
APAO; following 30 min. at 65° C. or 100° C.
  AP1 catabolic activity after heating: no AP1 catabolic activity remained
APAO; partially purified APAO enzyme from Exophiala spinifera
  activity on intact FB1: little or no activity
[3]
  Conclusion: Active (wild type)
  M H2O2/min: 1.92 μM H2O2/min
